This note sets out measurements from PMC10786891, “Massively parallel profiling of RNA-targeting CRISPR-Cas13d”.

The labels stand for the following.
T1: EsCas13d, nuclease-dead (Eubacterium siraeum, UniProt B0MS50, R295A;H300A;R849A;H854A)
T1 sequence: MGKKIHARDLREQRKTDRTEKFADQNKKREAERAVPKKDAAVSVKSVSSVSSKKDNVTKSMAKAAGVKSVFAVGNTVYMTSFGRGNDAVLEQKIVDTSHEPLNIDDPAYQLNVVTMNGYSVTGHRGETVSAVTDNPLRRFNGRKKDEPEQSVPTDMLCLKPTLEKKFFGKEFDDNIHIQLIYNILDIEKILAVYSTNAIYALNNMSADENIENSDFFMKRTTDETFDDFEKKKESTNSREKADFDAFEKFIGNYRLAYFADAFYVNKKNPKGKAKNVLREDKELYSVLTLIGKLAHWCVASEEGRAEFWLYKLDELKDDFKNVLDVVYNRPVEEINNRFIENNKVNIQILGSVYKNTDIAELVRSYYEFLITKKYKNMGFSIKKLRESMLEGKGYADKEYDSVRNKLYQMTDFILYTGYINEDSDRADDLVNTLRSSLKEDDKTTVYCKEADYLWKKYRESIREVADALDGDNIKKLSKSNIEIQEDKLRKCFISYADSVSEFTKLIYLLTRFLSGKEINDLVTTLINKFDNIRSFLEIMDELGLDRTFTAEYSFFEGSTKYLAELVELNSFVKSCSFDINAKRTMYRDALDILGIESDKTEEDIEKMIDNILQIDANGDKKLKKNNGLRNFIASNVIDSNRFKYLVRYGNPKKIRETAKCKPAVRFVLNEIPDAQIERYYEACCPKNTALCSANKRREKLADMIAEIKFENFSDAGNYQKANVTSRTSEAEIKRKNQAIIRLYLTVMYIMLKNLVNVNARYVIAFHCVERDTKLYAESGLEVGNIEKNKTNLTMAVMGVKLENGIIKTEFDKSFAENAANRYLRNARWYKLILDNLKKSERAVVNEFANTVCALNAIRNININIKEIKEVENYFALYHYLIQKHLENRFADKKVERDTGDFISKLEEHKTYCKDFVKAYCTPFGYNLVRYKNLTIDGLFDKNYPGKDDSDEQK

B1: target 1 insG 3' of 21,insG 3' of 7 (mixed)
RNA 1: CACCCGUGCAAAAAUGCAGGGGUCUAAAACUGAGCGGAUAACCUCUCUAUGG
RNA 2: GGGAAUGGAUCCACAUCUACGAAUUCGUACCGAUAGAGAGGUUAUCGCGCUCACCGAGAUCGGAAGAGCACACGU
B2: target 1 complement block 5-7 (mixed)
RNA 1: CACCCGUGCAAAAAUGCAGGGGUCUAAAACUGAGCGGAUAACCUCUCUAUGG
RNA 2: GGGAAUGGAUCCACAUCUACGAAUUCGUACCAUAGAGAGGUUAUGGCCUCACCGAGAUCGGAAGAGCACACGU
B3: target 1 C2U,G17A (mixed)
RNA 1: CACCCGUGCAAAAAUGCAGGGGUCUAAAACUGAGCGGAUAACCUCUCUAUGG
RNA 2: GGGAAUGGAUCCACAUCUACGAAUUCGUACCAUAAAGAGGUUAUCCGCUUACCGAGAUCGGAAGAGCACACGU
B4: target 1 insU 3' of 13,insG 3' of 11 (mixed)
RNA 1: CACCCGUGCAAAAAUGCAGGGGUCUAAAACUGAGCGGAUAACCUCUCUAUGG
RNA 2: GGGAAUGGAUCCACAUCUACGAAUUCGUACCAUAGAGAGUGUGUAUCCGCUCACCGAGAUCGGAAGAGCACACGU
B5: target 1 C4G,U11G (mixed)
RNA 1: CACCCGUGCAAAAAUGCAGGGGUCUAAAACUGAGCGGAUAACCUCUCUAUGG
RNA 2: GGGAAUGGAUCCACAUCUACGAAUUCGUACCAUAGAGAGGGUAUCCGGUCACCGAGAUCGGAAGAGCACACGU
B6: target 1 C7U,A20C (mixed)
RNA 1: CACCCGUGCAAAAAUGCAGGGGUCUAAAACUGAGCGGAUAACCUCUCUAUGG
RNA 2: GGGAAUGGAUCCACAUCUACGAAUUCGUACCCUAGAGAGGUUAUUCGCUCACCGAGAUCGGAAGAGCACACGU
B7: target 1 insC 3' of 19,insU 3' of 4 (mixed)
RNA 1: CACCCGUGCAAAAAUGCAGGGGUCUAAAACUGAGCGGAUAACCUCUCUAUGG
RNA 2: GGGAAUGGAUCCACAUCUACGAAUUCGUACCAUCAGAGAGGUUAUCCGCUUCACCGAGAUCGGAAGAGCACACGU
B8: target 1 A18U,A20U (mixed)
RNA 1: CACCCGUGCAAAAAUGCAGGGGUCUAAAACUGAGCGGAUAACCUCUCUAUGG
RNA 2: GGGAAUGGAUCCACAUCUACGAAUUCGUACCUUUGAGAGGUUAUCCGCUCACCGAGAUCGGAAGAGCACACGU
B9: target 1 U19G,C21A (mixed)
RNA 1: CACCCGUGCAAAAAUGCAGGGGUCUAAAACUGAGCGGAUAACCUCUCUAUGG
RNA 2: GGGAAUGGAUCCACAUCUACGAAUUCGUACAAGAGAGAGGUUAUCCGCUCACCGAGAUCGGAAGAGCACACGU
B10: target 1 C4G,A14C (mixed)
RNA 1: CACCCGUGCAAAAAUGCAGGGGUCUAAAACUGAGCGGAUAACCUCUCUAUGG
RNA 2: GGGAAUGGAUCCACAUCUACGAAUUCGUACCAUAGAGCGGUUAUCCGGUCACCGAGAUCGGAAGAGCACACGU
B11: target 1 insA 3' of 22,insU 3' of 14 (mixed)
RNA 1: CACCCGUGCAAAAAUGCAGGGGUCUAAAACUGAGCGGAUAACCUCUCUAUGG
RNA 2: GGGAAUGGAUCCACAUCUACGAAUUCGUACACAUAGAGAUGGUUAUCCGCUCACCGAGAUCGGAAGAGCACACGU
B12: target 1 insA 3' of 8,insA 3' of 5 (mixed)
RNA 1: CACCCGUGCAAAAAUGCAGGGGUCUAAAACUGAGCGGAUAACCUCUCUAUGG
RNA 2: GGGAAUGGAUCCACAUCUACGAAUUCGUACCAUAGAGAGGUUAUACCGACUCACCGAGAUCGGAAGAGCACACGU
B13: target 1 insC 3' of 12,insG 3' of 7 (mixed)
RNA 1: CACCCGUGCAAAAAUGCAGGGGUCUAAAACUGAGCGGAUAACCUCUCUAUGG
RNA 2: GGGAAUGGAUCCACAUCUACGAAUUCGUACCAUAGAGAGGCUUAUCGCGCUCACCGAGAUCGGAAGAGCACACGU

For the data set, the target named is T1, EsCas13d, nuclease-dead. The experiment in a line: crRNA (strand 1, pre-loaded); Mg2+; 40 mM Tris-HCl pH 7.5, 150 mM NaCl, 6 mM MgCl2, 1 mM DTT, 0.1% Tween-20, 0.2 mg/ml BSA; 25 C; 10 min per concentration, then washed. Particulars: tags: His6-TwinStrep-SUMO cleaved; N-terminal SNAP kept (SNAP-Surface 488); label: 3' end held by stalled T7 RNA polymerase.
B1: the dissociation constant (Kd) (usually a measure of binding affinity in units of concentration) was determined as 68 ± 5 nM. The molecule B2 yielded a dissociation constant Kd of 32.9 ± 1.5 nM.

For B3, the Kd came to 34.4 ± 2.7 nM.

With B4, the affinity, expressed as Kd, was 39 ± 8 nM. In the case of B5 it was 5.73 ± 0.29 nM; in that of B6, 37 ± 8 nM. As for B7, the figure is 32.2 ± 3.2 nM. Consider B8, for which the Kd is 95 ± 17 nM. This Kd is about 3-fold higher than that of the molecule before.

With B9, the Kd worked out at 56 ± 7 nM. The molecule B10 came in with a Kd of 14.1 ± 2.8 nM. Molecule B11 gave a dissociation constant (Kd) of 41 ± 20 nM. The molecule B12 returned a Kd of 18.8 ± 1.5 nM. The molecule B13 had a Kd of 16.2 ± 0.9 nM.
